B1: porcine DC-SIGN (receptor)
chain: MAEICDPKEPEEKTWTGPVLVERDLGLLRRLRNSPGCLTWPLLLLLLFVSLGFFMLLVTTLVQVSRIHQSLQRERETSRRPTAQEKIQSSLDKFLQQMTWMNATLAGLCHPCPWHWEFFQGRCYLFSQTQSDWKSSLSACKDIGAQLVIINSTAEQKFLKSWYVRYNKATWIGLSDDTNEGSWQWVDNSPLQLSFWKEGEPNNHGDEDCAELHNDGWNDSKCTVENAWICEKPSSPCPML
notes: In the Western blot it stood in a cell lysate (band of about 48 kDa, probably glycosylated); also called pDC-SIGN; BHK-PDCS (BHK-21 cells stably expressing it)
B2: human ICAM-2-Fc chimera (Fc fusion, UniProt P13598 25-223, looked up)
chain: KVFEVHVRPKKLAVEPKGSLEVNCSTTCNQPEVGGLETSLDKILLDEQAQWKHYLVSNISHDTVLQCHFTCSGKQESMNSNVSVYQPPRQVILTLQPTLVAVGKSFTIECRVPTVEPLDSLTLFLFRGNETLHYETFGKAAPAPQEATATFNSTADREDGHRNFSCLAVLDLMSRGGNIFHKHSAPKMLEIYEPVSDSQ
notes: Bought from R&D Systems; soluble immunoadhesin; also called hICAM2-Fc; hICAM-2-Fc; not shown: human IgG Fc (detected with anti-human IgG Fc antibody)
B3: human DC-SIGN (receptor, UniProt Q9NNX6 1-404, looked up)
chain: MSDSKEPRLQQLGLLEEEQLRGLGFRQTRGYKSLAGCLGHGPLVLQLLSFTLLAGLLVQVSKVPSSISQEQSRQDAIYQNLTQLKAAVGELSEKSKLQEIYQELTQLKAAVGELPEKSKLQEIYQELTRLKAAVGELPEKSKLQEIYQELTWLKAAVGELPEKSKMQEIYQELTRLKAAVGELPEKSKQQEIYQELTRLKAAVGELPEKSKQQEIYQELTRLKAAVGELPEKSKQQEIYQELTQLKAAVERLCHPCPWEWTFFQGNCYFMSNSQRNWHDSITACKEVGAQLVVIKSAEEQNFLQLQSSRSNRFTWMGLSDLNQEGTWQWVDGSPLLPSFKQYWNRGEPNNVGEEDCAEFSGNGWNDDKCNLAKFWICKKSAASCSRDEEQFLSPAPATPNPPPA
notes: whole, on cells; Positive control cell line; also called hDC-SIGN; CD209

Assays:
[1] = biological target: T1, recombinant human IgG1 Fc (human, UniProt P01857-1 100-330 = IgG part); assay: flow cytometry on BHK-PDCS cells, FITC anti-human IgG Fc detection
T1 construct: domain: Fc; Negative control for the ICAM-Fc chimeras; also called hFc
Method: (§1) Human ICAM-3 and ICAM-2 binding assay: Adhesion of human ICAM-3 or ICAM-2 to pDC-SIGN proteins was assessed with BHK-PDCS and BHK-21 cells by measuring detectable cells that bound the soluble immunoadhesins through FACS analysis. 3T3-HDCS cells were used as the positive control. Cells (1˜3×10⁵ per sample) were resuspended in 100 μL PBS containing 2% FBS and incubated for 60 min at 4° C. with 1 μg of recombinant human IgG₁ Fc (hFc), human ICAM-3-Fc (hICAM3-Fc) chimera or hICAM2-Fc chimera (R&D Systems, Minneapolis, Minn.) in the presence or absence of mannan (100 μg/mL) or ethylene glycol tetraacetic acid (EGTA, 10 mM). Cells were then washed twice and incubated for another 45 min at 4° C. with 0.5 μg of FITC-labeled anti-human IgG Fc antibody (KPL, Inc., Gaithersburg, Md.) in 100 μL PBS containing 2% FBS. Fluorescence was monitored using FACSAria (BD Biosciences, San Jose, Calif.).

[2] = biological target: T2, human ICAM-3-Fc chimera (human, UniProt P32942 30-485, limits assumed); assay: flow cytometry on BHK-PDCS cells, 1 ug Fc chimera, FITC anti-human IgG Fc
T2 construct: Bought from R&D Systems; soluble immunoadhesin; also called hICAM3-Fc; hICAM-3-Fc; not shown: human IgG Fc (detected with anti-human IgG Fc antibody)
T2 sequence (looked up): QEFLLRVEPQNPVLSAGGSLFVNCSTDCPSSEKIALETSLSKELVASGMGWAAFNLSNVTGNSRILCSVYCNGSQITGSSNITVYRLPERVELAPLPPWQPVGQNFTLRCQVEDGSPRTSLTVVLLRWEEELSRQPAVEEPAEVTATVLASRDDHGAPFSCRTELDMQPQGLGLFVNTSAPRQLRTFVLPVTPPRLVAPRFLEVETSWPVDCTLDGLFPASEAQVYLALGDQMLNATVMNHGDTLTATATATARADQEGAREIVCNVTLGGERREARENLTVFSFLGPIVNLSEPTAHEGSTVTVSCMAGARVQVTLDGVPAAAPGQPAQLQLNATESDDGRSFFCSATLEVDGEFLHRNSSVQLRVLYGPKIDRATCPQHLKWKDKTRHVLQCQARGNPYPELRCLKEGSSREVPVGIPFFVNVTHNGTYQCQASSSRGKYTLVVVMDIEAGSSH
Description: (§2) FIGS. 8a to 8e show the binding of human ICAM-3 and ICAM-2 immunoadhesins to BHK cells stably expressing pDC-SIGN. FIG. 8a provides the detection of surface expression of pDC-SIGN protein on stable BHK cell lines. BHK-21, and unsorted or sorted BHK-PDCS cell lines were stained with anti-pDC-SIGN antibody and FITC-labeled goat anti-rabbit IgG, respectively, and analyzed by flow cytometry. Dashed open histograms represented the background staining The expression of pDC-SIGN was indicated by the cross-hatched histograms. Expression of hDC-SIGN on the surface of 3T3-HDCS cell line was also verified by staining with a hDC-SIGN monoclonal antibody (right, bottom panel). FIGS. 8b to 8e illustrate the calcium-dependent binding of human ICAM-3 and ICAM-2 immunoadhesins to BHK-PDCS and 3T3-HDCS cells. Dashed open histograms represent cells staining only with a FITC labeled anti-human IgG Fc antibody. Results are representative of three independent experiments. Data are expressed as histogram analysis of 10,000 cells.
(§3) Human ICAM-3 and ICAM-2 binding assay: Adhesion of human ICAM-3 or ICAM-2 to pDC-SIGN proteins was assessed with BHK-PDCS and BHK-21 cells by measuring detectable cells that bound the soluble immunoadhesins through FACS analysis. 3T3-HDCS cells were used as the positive control. […] Fluorescence was monitored using FACSAria (BD Biosciences, San Jose, Calif.).

[3] = biological target: B2; assay: as above
Description: as §2, §3

[4] = biological target: B3; assay: flow cytometry histograms, FIGS. 8b-8e
Description: as §2, §3

[5] = biological target: T2, human ICAM-3-Fc chimera; assay: flow cytometry on 3T3-HDCS cells, 1 ug Fc chimera, FITC anti-human IgG Fc
Description: as §2, §3

[6] = biological target: T1, recombinant human IgG1 Fc; assay: flow cytometry on 3T3-HDCS cells, FITC anti-human IgG Fc detection
Method: as §1

B1
binding result [1]: no binding (tested: 1 ug in 100 uL)
binding result [2]: binds
binding result [3]: binds

B2
binding result [4]: binds

B3
binding result [5]: binds
binding result [6]: no binding (tested: 1 ug in 100 uL)

Source: patent US20100317054A1 (VIRGINIA TECH INTELLECTUAL PROPERTIES, published 2010)
